The text below walks through data of the supplement of paper PMC12042874.

± gives the uncertainty stated by the source.

This data set in a line: amyloid nucleation score (Sup35N fusion, yeast selection) (log enrichment); library NNK1; higher = more nucleation; inactive = no reads after selection. The essentials:
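Plasmid inserts were Illumina-sequenced at input and output from psi-negative yeast expressing Sup35N fused to peptides of 20 random codons. The yeast were induced with 100 μM copper sulfate for 24 hours and grown 7 days at 30°C on medium lacking adenine and uracil, and sequences with under 100 input reads were excluded. Nucleation score is the DiMSum log enrichment of output over input reads, centred on the mode score of non-aggregating sequences.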
Substance IWILYLAFIVHKNVLLPRVL returned an amyloid nucleation score of 0.123 ± 0.49.
The same measure for IWLLGSVHRLDSLVTDCKTS: 1.08 ± 0.63; for IWNVTPRGFDSAD: -0.345 ± 0.97; for IWWFSTFVRRRRAAVKVHKA: “inactive”.
In turn, IWYFLCICSLYRLEYHLLDC yielded an amyloid nucleation score of -0.405 ± 0.25.
The same measure for IYCHWNGFRGPYVIPRGCVV: 0.819 ± 0.51; for IYGCTCVDFGLSSNS: -0.46 ± 0.84.
The substance IYGTGFIWMFSVPKLERG gave an amyloid nucleation score of -0.537 ± 1.1.
In the case of IYNGVTGRYWTSHI it was -0.989 ± 0.7.
For the substance IYNGWQIRGNVNMMLCVCEW, the amyloid nucleation score stood at 6.568 ± 0.059.
In the case of IYNTYPTRRLRLQRGYYSME it was -0.607 ± 1.5; in that of IYRSVANSMKVSEYQIPLDS, -0.18 ± 0.54; in that of IYVYVLSMMCPSEDR, 0.201 ± 0.84.
The same measure for KANPDHIPRRLDYRGSGPSR: -0.482 ± 0.94; for KASDGLSINRGE: 0.48 ± 0.73.
The substance KCFRYCKKNSNWLDCRLQIW yielded an amyloid nucleation score of -1.26 ± 2.1.
The same measure for KCLIYGKFIVRCVPINV: -0.088 ± 0.59; for KCQIGSMVLSYMVELPGDRD: -0.171 ± 0.36; for KCTENLFRHCIRLEGSTWKF: -1.34 ± 2.7.
In the case of KCTWTN it was 0.255 ± 0.87.
The same measure for KDALDHHLIMLRGYVVLQS: -0.891 ± 0.59; for KDEGLTEVFESWISWGW: -0.065 ± 0.9.
KDIEYCASMCESCPYMT returned an amyloid nucleation score of 2.86 ± 0.39.
In turn, KDMDSFSTTCLLLRLRGRTG showed an amyloid nucleation score of 0.053 ± 0.35.
In the case of KDRWTCSFVAVCMRYLFAKS it was 0.134 ± 0.46; in that of KEGLRDGLLCRYQTCAG, 0.091 ± 0.48.
In the case of KEIINGCRR it was 5 ± 0.1.
The same measure for KELPSSSTCLKFS: -0.155 ± 0.44; for KESECITS: -0.849 ± 0.75.
As for KFFEFLYKFDPCRRYCRLCQ, the amyloid nucleation score stood at 0.264 ± 0.36.
In the case of KFNITFVSVKSYKVPLSLDI it was 4.81 ± 0.066; in that of KFRMCEFSGAYTYGVFKNLP, 0.834 ± 0.26; in that of KFRSEGWIGCESVIKW, 4.72 ± 0.078.
The same measure for KFSSKFTSG: 0.436 ± 0.37; for KFVYSVGMTLSSGSFSVEIF: 5.02 ± 0.053; for KGAIPFSSDCGGLSGLILYC: 0.301 ± 0.54.
In the case of KGANADAYGRGYNAVFMLEW it was -1.39 ± 1.2.
Regarding KGDMWMGPNESWVKVNLYRV, the amyloid nucleation score came out at 0.039 ± 0.55.
On to KGISVTCEGK, for which the amyloid nucleation score was found to be 1.24 ± 0.79.
In the case of KGLGGFLSICNSVVVRQVWR it was 0.098 ± 0.72.
In the case of KHPEM it was 1.43 ± 0.38; in that of KIFERRLSMYRSVSFLSRQC, 0.15 ± 0.32; in that of KIGRGRSNAVLLLAEDVYVG, -0.57 ± 1.2.
The same measure for KIPLNRIAVNASLRQRYCNP: 0.122 ± 0.27.
Substance KIRVILYVPRVS gave an amyloid nucleation score of 1.76 ± 0.51.
In the case of KITSEPTKFYMGVCPSRSEL it was -0.112 ± 0.44; in that of KKRSFLGYFVSLAFYNCYQY, 2.73 ± 0.075; in that of KKSYCYPFPFFSYV, 0.423 ± 0.65.
The same measure for KKTGVVGVYK: -1.26 ± 1.1; for KKVSLRLSSAVILSANSAML: -0.258 ± 0.54.
In the case of KLDVSLKKYLD it was 0.368 ± 0.31.
In turn, KLGGFVFGANVCCEDLSYEF registered an amyloid nucleation score of 0.984 ± 0.55.
The same measure for KLIFKRSFNRMDLSSLCYFR: -0.471 ± 0.39; for KLLIP: -1.17 ± 0.58; for KLLSTDNLYVQSYLFEDCNR: -0.544 ± 0.59.
In the case of KLMVWITFGSWSRVGHWKGI it was -0.387 ± 1.2; in that of KLNGNINFCFNCGNSGF, 7.27 ± 0.046.
In the case of KLQIPLGQVSLGSKVMKTGV it was -1.08 ± 2.4; in that of KLRRSIDTCNVYVWS, -0.593 ± 0.23.
Regarding KLSRDFRGFYRT, the amyloid nucleation score entry was “inactive”.
Substance KLWFVGSLYSGNVQVYVVVP returned an amyloid nucleation score of 4.49 ± 0.061.
In the case of KLWVNNQS it was 0.198 ± 0.57.
The same measure for KNFYDIKPLYALYSENLRLH: 0 ± 0.46; for KNMAYHDSLDSVYPAVG: 0.32 ± 0.57.
The same measure for KNQKMVYTRIGLPGFG: -0.42 ± 0.56; for KPLLTQQK: -0.356 ± 0.54.
KQECQYCWSG came in with an amyloid nucleation score of -1.15 ± 0.36.
In the case of KRFTRTNILRMTCT it was 0.901 ± 0.48; in that of KRLRTKFYVVLYFSYMSSTL, -1.52 ± 1.5; in that of KRLTMVVRGKLSVLHP, 3.74 ± 0.12.
In the case of KRSKN it was 1.37 ± 0.8; in that of KRSSFYHWQWHGKSL, -0.718 ± 0.51; in that of KRVIAMLTLIFG, 0.534 ± 0.64.
In the case of KSAEIKEQCTTWFMYTMLGA it was -0.785 ± 0.44; in that of KSDRIKLYNKCWELAVLMKK, -0.555 ± 1.1; in that of KSGLRTLFSGVGHCWDALVY, 0.198 ± 0.45.
Consider KSGVRYNRGRKYASTQ, for which the amyloid nucleation score was -0.302 ± 0.39.
The same measure for KSLENDHIVSVCSFLISRTR: 3.97 ± 0.081; for KSLVKYKWNLTFILY: “inactive”.
Turning to KSSCRDLIVDVNTGE, the amyloid nucleation score worked out at 0.765 ± 0.38.
As for KSTSRPCHWIYWMWMVYPRY, the amyloid nucleation score was found to be 0.445 ± 0.81.
In the case of KSWWNDVFVYVYQILEFHCR it was 0.032 ± 1.2; in that of KTASLRRVG, -0.071 ± 0.32.
In the case of KTLRNNLLFIQSTPK it was 0.1 ± 0.28; in that of KTRSNMNFHCS, 0.195 ± 0.6.
For the substance KTSCQSFVGR, the amyloid nucleation score is -0.403 ± 0.54.
The same measure for KTVVSELSVVNEVVA: -0.359 ± 0.31; for KVAHCCSDMYSWRVGKMMSM: 0.024 ± 0.79; for KVCAVTM: 0.095 ± 0.3.
In the case of KVFVSALCC it was 4.19 ± 0.067.
KVGHANVADFPIWRRNLFG: the amyloid nucleation score was -0.544 ± 0.84.
In the case of KVGLDIWGASGTN it was 0.525 ± 0.48; in that of KVGLSMKYRPYS, 2.29 ± 0.22; in that of KVHTGTSTRLKLYMHSTLRT, 0.454 ± 0.25.
In the case of KVIFYEFPTSQRFMGSMYDM it was 1.88 ± 0.19.
In the case of KVSEDMYSHFQQSFSQAIIV it was “inactive”; in that of KVTLNFRSHSLENCDAYNKY, 3.15 ± 0.12.
Regarding KVYYRVKMHYSLAGEARTDT, the amyloid nucleation score is 0.621 ± 0.84.
The same measure for KWCISKSFFVYPTMMR: 0.437 ± 0.44; for KWGHSENVVVYFDGAFSWVS: 0.16 ± 0.6; for KWIGIYINFDGYSVGS: 7.598 ± 0.044.
In the case of KWILVRSLESIHKPTL it was 0.174 ± 0.89.
As to KWLLTDDLRSGISAWWECPL, the amyloid nucleation score was -0.233 ± 0.62.
The same measure for KWLTFVMDMSDLCYSSFNVN: “inactive”; for KWSPIAGSTMIMEMCH: -1.08 ± 0.83.
With KWYGILNVVDDRRSIGRYDM, the amyloid nucleation score was -0.281 ± 0.58.
The same measure for KYDRCYYSRMNPSCVYIPYS: 2.47 ± 0.4; for KYFGFSVHSLLCYNRSLFLS: -0.055 ± 0.35.
Take KYIRISVDGIRFKEWCEFGS: the amyloid nucleation score is 0.777 ± 0.14.
The same measure for KYKESMYLRLCFRYVWTNYS: 0.441 ± 0.61.
As for KYLACILCSKLLTQSNSRNI, the amyloid nucleation score stood at 7.687 ± 0.058.
The same measure for KYLSYTVVCGLTNDSWHLMH: -0.196 ± 0.46; for KYLVLHILHIWMCHRYVWGM: -0.973 ± 0.6.
In the case of KYPSKSSELSGYEDSRNFVG it was 0.806 ± 0.62; in that of KYRDLGSFMQSWAARHGTLL, -0.226 ± 0.68.
The same measure for KYYMSLDFWGHALH: 2.76 ± 0.15; for LACWLTTRNKCILNSLITLV: 0.08 ± 1.1; for LAFTSLSNLYEDMCYQDWMV: 1.82 ± 0.36.
As for LAGNVS, the amyloid nucleation score was 0.503 ± 0.67.
In the case of LALGPLHSVLRGVINMGYGI it was -0.88 ± 1.7; in that of LAMRAMIRNVLFTKSQLHDR, -0.154 ± 0.38.
In the case of LAPGGDWYY it was “inactive”; in that of LAPMDLCGGSVAFR, 0.47 ± 0.4.
In the case of LAPNDGGRALSVDMRGWCDW it was “inactive”; in that of LARDYGFD, 0.051 ± 0.3.
In the case of LATFVWPGHGRV, the amyloid nucleation score worked out at 1.65 ± 0.14.
Take LATGHVFYGFG: the amyloid nucleation score is -0.116 ± 0.36.
In the case of LAVDMQRF it was 0.224 ± 1.4; in that of LAVEWWTNVVYVFYAYFANR, 0.001 ± 0.25; in that of LAYSNWALSCGIHIFRVTTS, 0.792 ± 0.27.
LCAREFVDCEAILVRLWFVY displayed an amyloid nucleation score of -1.18 ± 1.1.
LCFLTSIQCTALLDHQLVPR: the amyloid nucleation score is 6.17 ± 0.079.
In turn, LCFLWIGVP had an amyloid nucleation score of -0.241 ± 1.
In the case of LCFVRMRYLFESDCPRHRKH it was 0.384 ± 0.65; in that of LCGEGRFLQTWRSLSFP, -0.865 ± 0.39.
In the case of LCGIVRKILQTSKRSR it was 0.063 ± 0.49; in that of LCISARDLNNFGRNHMHFLL, -0.296 ± 0.34; in that of LCKDLAKHHN, 4.97 ± 0.056.
In the case of LCLILVGSY it was 0.062 ± 0.79.
As for LCNLGMLRLSGMENRINRVG, the amyloid nucleation score was found to be 1.29 ± 0.6.
